According to patent US20150306234:
Changes are numbered by the printed parent chain.

Legend:
[1] = tested on: T1, B domain deleted FVIII (BDD FVIII), unmutated
T1 sequence: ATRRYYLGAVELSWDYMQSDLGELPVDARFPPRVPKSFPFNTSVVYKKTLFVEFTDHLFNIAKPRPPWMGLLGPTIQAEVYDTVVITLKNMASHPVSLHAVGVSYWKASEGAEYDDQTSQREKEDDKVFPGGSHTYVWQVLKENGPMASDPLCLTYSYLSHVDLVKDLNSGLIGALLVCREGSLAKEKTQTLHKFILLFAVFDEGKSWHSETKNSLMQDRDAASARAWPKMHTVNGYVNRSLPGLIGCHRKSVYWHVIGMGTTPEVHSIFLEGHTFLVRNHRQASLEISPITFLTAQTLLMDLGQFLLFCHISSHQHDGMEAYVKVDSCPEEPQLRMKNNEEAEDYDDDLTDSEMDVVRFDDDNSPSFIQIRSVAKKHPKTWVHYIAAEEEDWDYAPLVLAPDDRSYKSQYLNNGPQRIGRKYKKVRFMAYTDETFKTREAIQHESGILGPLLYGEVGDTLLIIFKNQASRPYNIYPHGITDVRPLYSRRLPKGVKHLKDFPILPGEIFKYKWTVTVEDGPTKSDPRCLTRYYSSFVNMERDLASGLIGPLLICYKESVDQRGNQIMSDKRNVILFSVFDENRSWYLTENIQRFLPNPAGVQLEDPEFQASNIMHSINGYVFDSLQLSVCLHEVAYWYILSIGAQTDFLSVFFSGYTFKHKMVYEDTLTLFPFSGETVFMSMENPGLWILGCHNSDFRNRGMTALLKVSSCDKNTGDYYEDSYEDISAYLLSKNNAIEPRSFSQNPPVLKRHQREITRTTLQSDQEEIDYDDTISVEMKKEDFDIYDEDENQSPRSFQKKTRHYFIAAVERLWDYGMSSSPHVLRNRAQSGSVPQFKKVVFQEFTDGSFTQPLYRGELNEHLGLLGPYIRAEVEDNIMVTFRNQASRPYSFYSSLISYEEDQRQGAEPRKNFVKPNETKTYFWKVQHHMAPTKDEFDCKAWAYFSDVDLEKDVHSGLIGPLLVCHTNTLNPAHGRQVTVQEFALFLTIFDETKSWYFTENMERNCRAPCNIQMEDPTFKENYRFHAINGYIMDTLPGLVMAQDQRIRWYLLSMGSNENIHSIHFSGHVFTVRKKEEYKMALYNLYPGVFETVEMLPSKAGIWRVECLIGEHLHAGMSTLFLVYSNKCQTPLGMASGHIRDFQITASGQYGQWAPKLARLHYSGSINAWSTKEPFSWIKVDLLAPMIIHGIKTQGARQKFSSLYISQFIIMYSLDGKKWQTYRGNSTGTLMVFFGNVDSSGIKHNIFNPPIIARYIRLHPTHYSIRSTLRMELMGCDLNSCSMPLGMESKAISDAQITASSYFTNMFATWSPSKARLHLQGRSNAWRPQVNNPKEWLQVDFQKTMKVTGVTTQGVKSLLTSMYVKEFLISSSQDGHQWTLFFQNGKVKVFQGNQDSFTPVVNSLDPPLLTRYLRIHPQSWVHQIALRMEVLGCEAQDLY

BDD FVIII mutein S2094C = tested on: T2, BDD FVIII mutein S2094C
T2 sequence: T1 sequence with L986F, S1200C

In the case of “thrombin (Haematologic Technologies, Essex Junction, Vt.)”, the “thrombin cleavage, SDS-PAGE with silver staining” value [1] is reported as “Thrombin digestion of the muteins and control produced the expected cleavage fragments” and the “thrombin cleavage, SDS-PAGE with silver staining” value (BDD FVIII mutein S2094C) is reported as “Thrombin digestion of the muteins and control produced the expected cleavage fragments”.
